Earlier results as cited in article PMC3433420.
Like-named read-outs stand apart in the source and are kept apart here.

Columns and labels:
Conditions in all cases: cited from earlier work
[1] = target: SYK-C (Homo sapiens) (UniProt P43405)
[2] = target: PIK3R1-N (Homo sapiens) (UniProt P27986)
[3] = target: ITK (Homo sapiens) (UniProt Q08881)
[4] = target: ABL2 (Homo sapiens) (UniProt P42684)
[5] = target: ABL2 (Homo sapiens) (UniProt P42684); remark: listed apart in the source
[6] = target: PIK3R3-NC (Homo sapiens) (UniProt Q92569)
[7] = target: PIK3R3-NC (Homo sapiens) (UniProt Q92569); remark: listed apart in the source
[8] = target: SHF (Homo sapiens) (UniProt Q7M4L6)
[9] = target: PIK3R1-NC (Homo sapiens) (UniProt P27986)
[10] = target: PIK3R1-NC (Homo sapiens) (UniProt P27986); remark: listed apart in the source
[11] = target: PIK3R1-C (Homo sapiens) (UniProt P27986)
[12] = target: PIK3R3-N (Homo sapiens) (UniProt Q92569)
[13] = target: PIK3R3-N (Homo sapiens) (UniProt Q92569); remark: listed apart in the source
[14] = target: PIK3R2-NC (Homo sapiens) (UniProt O00459)
[15] = target: SHC1-PTB (Homo sapiens) (UniProt P29353)
[16] = target: SHB (Homo sapiens) (UniProt Q15464)
[17] = target: PIK3R2-N (Homo sapiens) (UniProt O00459)
[18] = target: PIK3R2-N (Homo sapiens) (UniProt O00459); remark: listed apart in the source
[19] = target: PIK3R3-C (Homo sapiens) (UniProt Q92569)
[20] = target: SYK-NC (Homo sapiens) (UniProt P43405)
[21] = target: SYK-NC (Homo sapiens) (UniProt P43405); remark: listed apart in the source
[22] = target: GRB7 (Homo sapiens) (UniProt Q14451)
[23] = target: GRB7 (Homo sapiens) (UniProt Q14451); remark: listed apart in the source
[24] = target: PIK3R1-N (Homo sapiens) (UniProt P27986); remark: listed apart in the source
[25] = target: PIK3R1-N (Homo sapiens) (UniProt P27986); remark: listed apart in the source
[26] = target: BLK (Homo sapiens) (UniProt P51451)
[27] = target: ITK (Homo sapiens) (UniProt Q08881); remark: listed apart in the source
[28] = target: ABL2 (Homo sapiens) (UniProt P42684); remark: listed apart in the source
[29] = target: PLCG2-NC (Homo sapiens) (UniProt P16885)
[30] = target: PIK3R3-NC (Homo sapiens) (UniProt Q92569); remark: listed apart in the source
[31] = target: PIK3R3-NC (Homo sapiens) (UniProt Q92569); remark: listed apart in the source
[32] = target: LYN (Homo sapiens) (UniProt P07948)
[33] = target: FGR (Homo sapiens) (UniProt P09769)
[34] = target: RASA1-N (Homo sapiens) (UniProt P20936)
[35] = target: RASA1-N (Homo sapiens) (UniProt P20936); remark: listed apart in the source
[36] = target: TENC1 (Homo sapiens) (UniProt Q63HR2)
[37] = target: TENC1 (Homo sapiens) (UniProt Q63HR2); remark: listed apart in the source
[38] = target: PIK3R1-NC (Homo sapiens) (UniProt P27986); remark: listed apart in the source
[39] = target: PIK3R1-NC (Homo sapiens) (UniProt P27986); remark: listed apart in the source
[40] = target: ABL1 (Homo sapiens) (UniProt P00519)
[41] = target: PIK3R3-N (Homo sapiens) (UniProt Q92569); remark: listed apart in the source
[42] = target: PIK3R3-N (Homo sapiens) (UniProt Q92569); remark: listed apart in the source
[43] = target: SRC (Homo sapiens) (UniProt P12931)
[44] = target: PIK3R2-NC (Homo sapiens) (UniProt O00459); remark: listed apart in the source
[45] = target: PIK3R2-NC (Homo sapiens) (UniProt O00459); remark: listed apart in the source
[46] = target: YES1 (Homo sapiens) (UniProt P07947)
[47] = target: PIK3R2-N (Homo sapiens) (UniProt O00459); remark: listed apart in the source
[48] = target: PIK3R2-N (Homo sapiens) (UniProt O00459); remark: listed apart in the source

Sequence of PIK3R2-NC (Homo sapiens) (O00459 325-721): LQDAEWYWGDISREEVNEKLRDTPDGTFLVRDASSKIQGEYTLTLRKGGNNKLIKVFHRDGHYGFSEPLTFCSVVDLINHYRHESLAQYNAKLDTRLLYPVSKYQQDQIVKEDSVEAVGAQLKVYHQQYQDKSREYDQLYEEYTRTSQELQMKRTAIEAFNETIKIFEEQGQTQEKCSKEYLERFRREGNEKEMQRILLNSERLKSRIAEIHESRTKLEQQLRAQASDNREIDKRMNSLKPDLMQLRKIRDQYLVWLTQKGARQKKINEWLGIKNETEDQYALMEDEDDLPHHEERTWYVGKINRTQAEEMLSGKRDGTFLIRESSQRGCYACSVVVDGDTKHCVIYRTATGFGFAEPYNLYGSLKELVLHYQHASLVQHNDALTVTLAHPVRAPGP
Sequence of PIK3R2-N (Homo sapiens) (O00459 325-721): as above
Sequence of PIK3R1-N (Homo sapiens) (P27986 328-723): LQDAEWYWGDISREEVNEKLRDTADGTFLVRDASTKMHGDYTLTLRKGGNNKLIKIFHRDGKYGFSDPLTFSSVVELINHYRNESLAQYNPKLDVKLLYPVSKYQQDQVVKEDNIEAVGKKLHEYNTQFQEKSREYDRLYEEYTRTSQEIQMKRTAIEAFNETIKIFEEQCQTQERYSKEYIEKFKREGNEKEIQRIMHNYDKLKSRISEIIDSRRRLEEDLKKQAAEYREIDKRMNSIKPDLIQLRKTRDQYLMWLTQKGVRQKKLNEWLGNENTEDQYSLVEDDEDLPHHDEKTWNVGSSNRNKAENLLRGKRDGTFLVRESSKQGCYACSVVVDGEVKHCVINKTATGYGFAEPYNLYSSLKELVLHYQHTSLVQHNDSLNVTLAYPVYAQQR
Sequence of PIK3R1-NC (Homo sapiens) (P27986 328-723): as above
Sequence of ABL2 (Homo sapiens) (P42684 168-268): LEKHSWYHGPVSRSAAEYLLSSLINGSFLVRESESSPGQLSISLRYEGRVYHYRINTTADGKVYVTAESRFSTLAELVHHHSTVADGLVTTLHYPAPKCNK
Sequence of GRB7 (Homo sapiens) (Q14451 426-532): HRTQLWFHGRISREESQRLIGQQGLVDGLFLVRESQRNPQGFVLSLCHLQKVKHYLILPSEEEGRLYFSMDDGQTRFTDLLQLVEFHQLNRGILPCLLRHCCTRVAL
Sequence of RASA1-N (Homo sapiens) (P20936 176-446): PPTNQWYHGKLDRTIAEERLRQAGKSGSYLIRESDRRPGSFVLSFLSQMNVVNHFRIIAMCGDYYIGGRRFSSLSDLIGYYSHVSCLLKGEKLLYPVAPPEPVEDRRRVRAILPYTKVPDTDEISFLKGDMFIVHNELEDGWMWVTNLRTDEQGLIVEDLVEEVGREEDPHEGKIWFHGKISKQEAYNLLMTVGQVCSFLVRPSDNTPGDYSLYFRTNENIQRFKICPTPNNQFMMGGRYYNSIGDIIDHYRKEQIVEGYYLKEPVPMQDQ
Sequence of TENC1 (Homo sapiens) (Q63HR2 1135-1252): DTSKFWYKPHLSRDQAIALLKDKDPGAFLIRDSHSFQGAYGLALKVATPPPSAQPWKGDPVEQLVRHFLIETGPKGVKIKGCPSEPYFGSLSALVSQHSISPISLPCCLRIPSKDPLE
Sequence of ITK (Homo sapiens) (Q08881 234-343): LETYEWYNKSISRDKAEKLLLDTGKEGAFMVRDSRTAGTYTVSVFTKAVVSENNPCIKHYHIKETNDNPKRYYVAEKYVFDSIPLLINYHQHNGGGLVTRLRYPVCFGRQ
Sequence of SHB (Homo sapiens) (Q15464 405-509): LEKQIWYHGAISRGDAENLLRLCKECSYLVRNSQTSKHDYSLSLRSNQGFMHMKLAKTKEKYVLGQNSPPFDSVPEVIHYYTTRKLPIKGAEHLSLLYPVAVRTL
Sequence of SHF (Homo sapiens) (Q7M4L6 318-423): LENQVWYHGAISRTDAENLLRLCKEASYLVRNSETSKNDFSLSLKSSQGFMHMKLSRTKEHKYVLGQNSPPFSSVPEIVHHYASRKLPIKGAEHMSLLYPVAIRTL
Sequence of PLCG2-NC (Homo sapiens) (P16885 527-740): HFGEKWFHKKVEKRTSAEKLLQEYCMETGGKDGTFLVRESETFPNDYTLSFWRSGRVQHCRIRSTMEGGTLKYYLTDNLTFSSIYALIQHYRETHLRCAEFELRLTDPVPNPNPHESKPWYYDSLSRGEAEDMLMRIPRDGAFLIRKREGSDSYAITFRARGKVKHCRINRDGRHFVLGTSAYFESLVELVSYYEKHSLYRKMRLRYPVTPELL
Sequence of ABL1 (Homo sapiens) (P00519 122-222): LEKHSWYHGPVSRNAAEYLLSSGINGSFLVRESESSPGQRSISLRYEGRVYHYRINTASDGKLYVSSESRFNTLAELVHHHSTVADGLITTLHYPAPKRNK
Sequence of LYN (Homo sapiens) (P07948 124-231): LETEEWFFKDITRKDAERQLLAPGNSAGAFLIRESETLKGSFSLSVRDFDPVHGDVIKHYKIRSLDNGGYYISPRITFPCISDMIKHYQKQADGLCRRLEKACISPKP
Sequence of BLK (Homo sapiens) (P51451 119-225): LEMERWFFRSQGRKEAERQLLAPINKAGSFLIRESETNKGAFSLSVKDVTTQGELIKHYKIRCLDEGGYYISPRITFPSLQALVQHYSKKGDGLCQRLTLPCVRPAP
Sequence of PIK3R1-C (Homo sapiens) (P27986 328-723): as the sequence (P27986 328-723) above
Sequence of YES1 (Homo sapiens) (P07947 153-260): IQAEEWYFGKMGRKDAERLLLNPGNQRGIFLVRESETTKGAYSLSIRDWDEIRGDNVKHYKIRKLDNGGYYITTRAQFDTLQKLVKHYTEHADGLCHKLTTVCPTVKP
Sequence of SHC1-PTB (Homo sapiens) (P29353 483-583): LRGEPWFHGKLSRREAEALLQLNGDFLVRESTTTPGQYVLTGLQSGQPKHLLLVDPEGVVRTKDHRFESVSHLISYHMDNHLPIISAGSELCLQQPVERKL

What does the source list for …pYMPMNQGN?
apparent Kd (screen) [1]: 1.18 µM; apparent Kd (screen) [2]: 0.566 µM; apparent Kd (screen) [3]: 1.67 µM; apparent Kd (screen) [4]: 0.331 µM; apparent Kd (screen) [5]: 0.167 µM; apparent Kd (screen) [6]: 0.492 µM; apparent Kd (screen) [7]: 0.05 µM; apparent Kd (screen) [8]: 1.23 µM; apparent Kd (screen) [9]: 0.92 µM; apparent Kd (screen) [10]: 0.105 µM; apparent Kd (screen) [11]: 0.999 µM; apparent Kd (screen) [12]: 1.32 µM; apparent Kd (screen) [13]: 0.999 µM; apparent Kd (screen) [14]: 0.088 µM; apparent Kd (screen) [15]: 2 µM; apparent Kd (screen) [16]: 1.37 µM; apparent Kd (screen) [17]: 0.893 µM; apparent Kd (screen) [18]: 0.999 µM; apparent Kd (screen) [19]: 0.109 µM

Which results are given for …pYEYMNRRR?
apparent Kd (screen) [20]: 0.894 µM; apparent Kd (screen) [21]: 1.26 µM; apparent Kd (screen) [22]: 0.125 µM; apparent Kd (screen) [23]: 0.099 µM; apparent Kd (screen) [24]: 0.347 µM; apparent Kd (screen) [25]: 0.674 µM; apparent Kd (screen) [26]: 0.068 µM; apparent Kd (screen) [27]: 0.155 µM; apparent Kd (screen) [28]: 1.11 µM; apparent Kd (screen) [29]: 0.614 µM; apparent Kd (screen) [30]: 0.256 µM; apparent Kd (screen) [31]: 0.499 µM; apparent Kd (screen) [32]: 1.07 µM; apparent Kd (screen) [33]: 0.709 µM; apparent Kd (screen) [34]: 0.516 µM; apparent Kd (screen) [35]: 0.929 µM; apparent Kd (screen) [36]: 1.8 µM; apparent Kd (screen) [37]: 1.63 µM; apparent Kd (screen) [38]: 0.254 µM; apparent Kd (screen) [39]: 0.499 µM; apparent Kd (screen) [40]: 1.43 µM; apparent Kd (screen) [41]: 0.201 µM; apparent Kd (screen) [42]: 0.281 µM; apparent Kd (screen) [43]: 0.866 µM; apparent Kd (screen) [44]: 0.257 µM; apparent Kd (screen) [45]: 0.448 µM; apparent Kd (screen) [46]: 0.125 µM; apparent Kd (screen) [47]: 0.143 µM; apparent Kd (screen) [48]: 0.239 µM
